{"source": "paper doi:10.1101/2024.12.23.630133", "about": "(bioRxiv, 2024)", "proteins": {"B1": {"name": "HCN1SM (GFP-tagged human HCN1 channel) (natural protein)", "chain": "MEGGGKPNSSSNSRDDGNSVFPAKASATGAGPAAAEKRLGTPPGGGGAGAKEHGNSVCFKVDGGGGGGGGGGGGEEPAGGFEDAEGPRRQYGFMQRQFTSMLQPGVNKFSLRMFGSQKAVEKEQERVKTAGFWIIHPYSDFRFYWDLIMLIMMVGNLVIIPVGITFFTEQTTTPWIIFNVASDTVFLLDLIMNFRTGTVNEDSSEIILDPKVIKMNYLKSWFVVDFISSIPVDYIFLIVEKGMDSEVYKTARALRIVRFTKILSLLRLLRLSRLIRYIHQWEEIFHMTYDLASAVVRIFNLIGMMLLLCHWDGCLQFLVPLLQDFPPDCWVSLNEMVNDSWGKQYSYALFKAMSHMLCIGYGAQAPVSMSDLWITMLSMIVGATCYAMFVGHATALIQSLDSSRRQYQEKYKQVEQYMSFHKLPADMRQKIHDYYEHRYQGKIFDEENILNELNDPLREEIVNFNCRKLVATMPLFANADPNFVTAMLSKLRFEVFQPGDYIIREGAVGKKMYFIQHGVAGVITKSSKEMKLTDGSYFGEICLLTKGRRTASVRADTYCRLYSLSVDNFNEVLEEYPMMRRAFETVAIDRLDRIGKKNSILLQKFQKDLNTGVFNNQENEILKQIVKHDREMVQAIAPINYPQMTTLNSTSSTTTPTSRMRTQSPPVYTATSLSHSNLHSPSPSTQTPQPSAILSPCSYTTAVCSPPVQSPLAARTFHYASPTASQLSLMQQQPQQQVQQSQPPQTQPQQPSPQPQTPGSSTPKNEVHKSTQALHNTNLTREVRPLSASQPSLPHEVSTLISRPHPTVGESLASIPQPVTAVPGTGLQAGGRSTVPQRVTLFRQMSSGAIPPNRGVPPAPPPPAAALPRESSSVLNTDPDAEKPRFASNL"}}, "target": "the molecule itself", "test": "single-molecule GFP photobleaching", "data": [{"protein": "B1", "values": [{"measurement": "stoichiometry N", "result": 4}]}]}
